This experiment has as its target thuricin CD (Bacillus thuringiensis DPC 6431).

pepsin (enzyme) returned an antimicrobial activity after enzyme treatment (well diffusion assay, C. difficile ATCC 43593) (% reduction in activity) of 50.

In the case of trypsin (enzyme), the antimicrobial activity after enzyme treatment (well diffusion assay, C. difficile ATCC 43593) (% reduction in activity) worked out at 20.
